The values below come from US11230711B2, “Inhibition of LET7I as a means to enhance the protective effect of progesterone against stroke” (UNIVERSITY OF NORTH TEXAS HEALTH SCIENCE CENTER, priority 2017, dated 2022).

The test concerns primary cortical neurons. The experiment in a line: Synaptic marker expression (Synaptophysin, Gap-43) in primary cortical neurons, immunostaining and qRT-PCR. Type of test: cell-based, mouse. The note with it: P4-ACM from 10 nM P4-treated astrocytes, 18 hrs, BDNF 50 ng/ml, FIGS. 1A-1B. An excerpt:
FIG. 1A represents immune-staining of Gap43 (green) and Synaptophysin (red). FIG. 1B represents qRT-PCR analysis of Gap43 (left) and Synaptophysin (right) mRNA levels. Data are presented as a percentage of control (non-treated group) (*: p≤0.05, **:p≤0.01).
The use of animals for the purpose of generating primary cultures was approved by the Institutional Animal Care and Use Committee at the University of North Texas Health Science Center. All mice will be handled according to the Guide for the Care and Use of Laboratory Animals. Primary cultures of cortex and hippocampal neurons will be prepared from neonatal murine pups (C57BL/6 mice, Jackson Laboratory) as described by Sarkar et al. with modifications. Briefly, cortical tissues isolated from newborn mice (postnatal days 2-4, mixed gender) will be then dissociated with trypsin and DNase I for 10 min at 37° C., and wash twice with Neurobasal-A medium containing B-27 and further dissociated by gentle titration using a graded series of fine polished Pasteur pipettes. After centrifugation at 200×g for 3 min at 4° C., dissociated cells will be resuspended in Neurobasal-AB-27 medium, passed through a cell strainer with 70 μm mesh, and plated at 1.0×10^5 cells/cm2 on culture dishes precoated with poly-D-lysine. The culture dishes were kept at 37° C. in humidified 95% air and 5% CO2. For primary neuron-enriched culture, the initial culture medium was replaced after 5 h; subsequently, half of the medium was changed every 3 days. At day in vitro (DIV) 3, 1-β-arabinofuranosylcytosine (AraC) was added to a final concentration of 5 μM to prevent glial proliferation. Treatments of the primary neuronal cultures started at DIV 14. For glial-enriched cultures, confluent mixed glial cultures were placed on the shaker for 48 hrs to dislodge microglia, resulting in cultures enriched with astrocyte population.
Although the underlying mechanism remains unclear, one potential mediator for P4-induced synaptogenesis is BDNF [33].

Setting [1] is: listed as purified recombinant BDNF.

B1: BDNF: purified recombinant brain-derived neurotrophic factor, 50 ng/ml, positive control (protein, UniProt P23560 19-247, looked up)
Neurotrophic factor BDNF …: APMKEANIRGQGGLAYPGVRTHGTLESVNGPKAGSRGLTSLADTFEHVIEELLDEDQKVRPNEENNKDADLYTSRVMLSSQVPLEPPLLFLLEEYKNYLDAANMSMRVRRHSDPARRGELSVCDSISEWVTAADKKTAVDMSGGTVTVLEKVPVSKGQLKQYFYETKCNPMGYTKEGCRGIDKRHWNSQCRTTQSYVRALTMDSKKRIGWRFIRIDTSCVCTLTIKRGR
For the molecule B1, the “expression of Gap-43” value is given as “increased expression” and the “expression of Synaptophysin” value was “increased expression”. Also, under setting [1], the “expression of Gap-43” value is reported as “increased the expression” and the “expression of Synaptophysin” value was “increased the expression”.
